Reference: publication PMC2112911
“And” between values parts separate entries of the source, which are not always exact repeats. Equal values may be shown once. Read-outs that look alike come from different tables or passages of the source.

Experiments:
[1] = biological target: Acanthamoeba myosin-II (Acanthamoeba); test: electron microscopy
[2] = biological target: Acanthamoeba myosin-II (Acanthamoeba); test: electron microscopy; remark: listed apart in the source
[3] = biological target: Acanthamoeba myosin-II, 2.6 heavy chain phosphates per molecule (Acanthamoeba); test: sedimentation
[4] = biological target: Acanthamoeba myosin-II, 2.6 heavy chain phosphates per molecule (Acanthamoeba); test: sedimentation; remark: listed apart in the source
[5] = biological target: Acanthamoeba myosin-II, 2.6 heavy chain phosphates per molecule (Acanthamoeba); test: sedimentation; remark: listed apart in the source
[6] = biological target: Acanthamoeba myosin-II, 2.6 heavy chain phosphates per molecule (Acanthamoeba); test: sedimentation; remark: listed apart in the source
[7] = biological target: Acanthamoeba myosin-II, 4.9 heavy chain phosphates per molecule (Acanthamoeba); test: sedimentation
[8] = biological target: Acanthamoeba myosin-II, dephosphorylated, 0.8 heavy chain phosphates per molecule (Acanthamoeba); test: sedimentation

Question: Which results are given for Acanthamoeba myosin-II (complex)?
Answer: stoichiometry N [1]: 16 and > 12; stoichiometry N [2]: > 35

Question: With “Acanthamoeba myosin-II, 2.6 heavy chain phosphates per molecule (complex)” as the substance, how does the critical concentration [3] read?
Answer: 24 µg/mL and 32 µg/mL

Question: What about the critical concentration [4] of the same substance?
Answer: 20 µg/mL and 15 µg/mL

Question: What about the critical concentration [5] of the same substance?
Answer: 26 µg/mL

Question: What about the critical concentration [6] of the same substance?
Answer: 14 µg/mL and 18 µg/mL and 15 µg/mL

Question: How did the critical concentration [7] turn out when “Acanthamoeba myosin-II, 4.9 heavy chain phosphates per molecule (complex)” was run?
Answer: < 5 µg/mL

Question: How did the critical concentration [8] turn out when “Acanthamoeba myosin-II, dephosphorylated, 0.8 heavy chain phosphates per molecule (complex)” was run?
Answer: 18 µg/mL
